Assay results from patent publication US20230416410A1 (ZOETIS SERVICES, published 2023).

Experiments:
Assay in all cases: SPR Biacore, biotinylated receptor on SA sensor, pH 7.4, 15 C
CTLA4 Fc bIgG1aSAP = molecular target: T1, CTLA4 Fc bIgG1aSAP (canine; bovine, UniProt Q9XSI1 36-161, limits assumed)
T1 construct: No linker
T1 sequence: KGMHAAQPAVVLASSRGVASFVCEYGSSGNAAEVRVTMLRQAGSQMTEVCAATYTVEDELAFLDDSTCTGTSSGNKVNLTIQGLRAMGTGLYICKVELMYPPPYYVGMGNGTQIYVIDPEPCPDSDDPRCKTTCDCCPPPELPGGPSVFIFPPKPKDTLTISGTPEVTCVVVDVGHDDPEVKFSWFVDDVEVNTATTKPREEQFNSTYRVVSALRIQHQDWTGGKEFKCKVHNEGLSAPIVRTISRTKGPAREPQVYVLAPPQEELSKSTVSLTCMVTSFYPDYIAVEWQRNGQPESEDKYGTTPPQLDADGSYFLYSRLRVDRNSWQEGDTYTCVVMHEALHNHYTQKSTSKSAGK
Method: (§1) A Biacore SPR binding assay was designed to test the affinity of bovine IgG subclasses to bFcgR1, bFcgR2 and bFcgR3. All reported KD's were measured by Biacore (Cytiva, Marlborough, MA, USA) using series S SA sensor. Biotinylated-bovine FcgR1, R2 and R3 were captured on the sensor surface using a modified SA capture method to reach the desired surface density. 10 mM HEPES, 150 mM NaCl, 3 mM EDTA, 0.05% v/v surfactant P20, pH7.4 buffer was used as the running and titration buffer. Various concentrations of bovine CTLA4-Fc fusions or mAbs were titrated and flowed over the receptor surface and affinities were determined using Biacore T200 Evaluation software (Cytiva, Marlborough, MA, USA) with 1:1 binding model. The method of double referencing has been applied where the reference flow cell was subtracted from the flow cell containing immobilized receptors and blank runs containing buffer only were subtracted out from all runs. Flow cells were regenerated using 10 mM Glycine pH1.5. Runs were performed at 15° C.
(§2) The ability to knock out binding to bovine Fc gamma receptors was evaluated by comparing SPR Biacore bFcgR affinity of bIgG1a and bIgG1b wildtype Fc to the bIgG1a and bIgG1b mutations, described above. All mutations made to bIgG1 are identical for the a and b allotypes. Biacore methods for bFcgR1, R2, and R3 were performed as described in Example 1.

CTLA4 Fc bIgG1a = molecular target: T2, CTLA4 Fc bIgG1a (canine; bovine, UniProt Q9XSI1 36-161, limits assumed)
T2 construct: No linker; also called bIgG1a wildtype; CTLA4 Fc bIgG1a wildtype
T2 sequence: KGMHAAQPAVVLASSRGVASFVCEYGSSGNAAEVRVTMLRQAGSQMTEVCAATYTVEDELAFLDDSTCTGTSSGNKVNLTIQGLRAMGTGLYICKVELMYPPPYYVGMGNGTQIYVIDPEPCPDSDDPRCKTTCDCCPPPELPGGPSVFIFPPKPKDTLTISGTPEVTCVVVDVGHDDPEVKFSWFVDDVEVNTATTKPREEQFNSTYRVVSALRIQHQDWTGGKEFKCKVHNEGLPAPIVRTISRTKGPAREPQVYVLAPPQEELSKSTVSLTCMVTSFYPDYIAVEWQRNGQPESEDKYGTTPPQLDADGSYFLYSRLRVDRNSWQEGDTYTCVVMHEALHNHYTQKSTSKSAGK
Method: as §1, §2

CTLA4 Fc bIgG1aWinSAS = molecular target: T3, CTLA4 Fc bIgG1aWinSAS (canine; bovine, UniProt Q9XSI1 36-161, limits assumed)
T3 construct: No linker
T3 sequence: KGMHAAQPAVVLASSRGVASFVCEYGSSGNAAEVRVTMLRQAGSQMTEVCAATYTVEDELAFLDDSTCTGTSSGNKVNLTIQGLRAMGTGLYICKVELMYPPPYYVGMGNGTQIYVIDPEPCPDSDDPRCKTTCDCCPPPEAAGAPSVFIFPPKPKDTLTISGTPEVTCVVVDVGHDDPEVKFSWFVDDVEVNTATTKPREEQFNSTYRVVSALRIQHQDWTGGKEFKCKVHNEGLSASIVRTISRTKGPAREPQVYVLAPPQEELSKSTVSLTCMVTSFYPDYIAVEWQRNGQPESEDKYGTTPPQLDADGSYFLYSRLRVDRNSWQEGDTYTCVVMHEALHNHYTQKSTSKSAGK
Method: as §1, §2

CTLA4 Fc bIgG3aWin = molecular target: T4, CTLA4 Fc bIgG3aWin (canine; bovine, UniProt Q9XSI1 36-161, limits assumed)
T4 construct: No linker
T4 sequence: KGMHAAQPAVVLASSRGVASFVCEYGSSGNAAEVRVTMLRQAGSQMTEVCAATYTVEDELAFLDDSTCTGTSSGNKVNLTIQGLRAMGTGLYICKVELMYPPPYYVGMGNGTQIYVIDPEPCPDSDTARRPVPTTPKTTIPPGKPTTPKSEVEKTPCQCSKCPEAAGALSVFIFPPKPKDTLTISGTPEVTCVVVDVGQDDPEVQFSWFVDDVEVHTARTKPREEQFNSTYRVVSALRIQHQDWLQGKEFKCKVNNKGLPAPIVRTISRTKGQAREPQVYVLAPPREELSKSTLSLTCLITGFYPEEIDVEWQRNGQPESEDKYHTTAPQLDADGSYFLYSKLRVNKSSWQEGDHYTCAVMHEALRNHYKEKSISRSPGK
Method: as §1
(§3) Biacore methods for bFcgR1, R2, and R3 were performed as described in Examples above. […] Although the two allotypes have different KDs for bFcgR2 and bFcgR3, both wildtype allotypes do bind. All of the mutations, bIgG3Win, bIgG3WinSAS, bIgG3SAS and bIgG3SAP for both the a and b allotypes knocked down binding to bFcgR1, bFcgR2 and bFcgR3 to negligible affinities. Thus, for knocking out receptor binding, the two allotypes compare similarly.

CTLA4 Fc bIgG3a = molecular target: T5, CTLA4 Fc bIgG3a (canine; bovine, UniProt Q9XSI1 36-161, limits assumed)
T5 construct: No linker; also called bIgG3a wildtype; CTLA4 Fc bIgG3a wildtype
T5 sequence: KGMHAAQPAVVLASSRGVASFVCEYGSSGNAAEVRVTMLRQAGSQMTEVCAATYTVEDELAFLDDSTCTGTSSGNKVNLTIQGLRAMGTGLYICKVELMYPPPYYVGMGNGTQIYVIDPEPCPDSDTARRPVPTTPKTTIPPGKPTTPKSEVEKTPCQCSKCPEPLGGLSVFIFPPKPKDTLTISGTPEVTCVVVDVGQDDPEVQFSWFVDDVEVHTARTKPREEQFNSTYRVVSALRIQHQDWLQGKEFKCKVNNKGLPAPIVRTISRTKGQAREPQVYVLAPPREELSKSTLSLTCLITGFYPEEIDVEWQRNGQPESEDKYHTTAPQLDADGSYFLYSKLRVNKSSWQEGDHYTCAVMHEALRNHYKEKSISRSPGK
Method: as §1, §3

B1: recombinant bovine FcgR2 (receptor)
chain: KPDLPKAVVTIQPAWINVLREDHVTLTCQGTSFSAGNLTTWFHNGSSIHTQKQPSYSFRAGSNDSGSYRCQREQTSLSDPVHLDVISDWLLLQTPSLVFQEGEPIMLRCHSWRNQPLNKITFYQDRKSKIFSYQRTNFSIPRANLSHSGQYHCTAFIGKMLHSSQPVNITVQESSSSGPSSMTHHHHHHAGLNDIFEAQKIEWHE
modifications: biotin on the BAP tag (BirA)
notes: also called bFcgR2; bFcgRII
- binding result (CTLA4 Fc bIgG1aSAP): no binding
- Kd (CTLA4 Fc bIgG1a): 3.37 nM
- binding result (CTLA4 Fc bIgG1aWinSAS): no binding
- binding result (CTLA4 Fc bIgG3aWin): no binding
- Kd (CTLA4 Fc bIgG3a): 68.9 nM

B2: recombinant bovine FcgR3 (receptor)
chain: DTQTADPSKAVVLLDPQWNHVLTNDRVTLKCQGDYPVEDNSTKWWHNGTLISSQTPSYFIADVKVQDSGEYKCQTGLSAPSDPVKLEVHVGWLLLQVAQRVVNVGKPIRLKCHSWKKTPVAKVQYFRNGRGKKYSHGNSDFHIPEAKLEHSGSYFCRGIIGSKNESSESVQITVQAPETLQTVSSFFLPWHQHHHHHHAGLNDIFEAQKIEWHE
modifications: biotin on the BAP tag (BirA)
notes: also called bFcgR3; bFcgRIII
- binding result (CTLA4 Fc bIgG1aSAP): no binding
- Kd (CTLA4 Fc bIgG1a): 14.3 nM
- binding result (CTLA4 Fc bIgG1aWinSAS): no binding
- binding result (CTLA4 Fc bIgG3aWin): no binding
- Kd (CTLA4 Fc bIgG3a): 7170 nM
